# The supplement of paper PMC6755084
# B1: F1*; the commonest letter at each place (parent)
# chain: GAGACCGCAACTGAAAAGTTGTTATCACTTGTCGTAAGACACTTTGGATGGGTTGAAGTTCTGCACGTAGAAGCAAAAGGC
# Variants of: B1
# Test: fraction ligated after 30 min (ligated reads / total reads); higher = more ligase activity
# Conditions: with F1*sub RNA substrate (template-directed ligation), 42 °C
# Protocol: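 Chip-synthesised pool of F1* ligase ribozyme variants (all single and double substitutions, single, double and triple deletions in the catalytic core and GAA bulge, plus designed variants) was transcribed with T7 and reacted as a pool with excess substrate F1*sub for 30 min at 42 C in 50 mM EPPS pH 8.5, 25 mM MgCl2. Ligated and unligated bands were separated by PAGE, barcoded by RT and deep sequenced; fraction ligated = ligated reads / total reads per variant, relative activity = FL / FL of wild type (0.826). Sequences are the DNA template of the ribozyme.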
row,Variant,fraction ligated
1,C26T A37T,0.853
2,C26G A41C,0.0431
3,C26G A41G,0.716
4,C26G A41T,0.459
5,C26A G34A,0.786
6,C26A G34C,0.805
7,C26A G34T,0.808
8,C26G G55A,0.169
9,C26G G55T,0.0355
10,C26G G55C,0.00657
11,T25G T49G,0.779
12,T25G T49C,0.527
13,T25G T49A,0.723
14,C26A C33A,0.721
15,C26A C33G,0.792
16,C26A C33T,0.829
17,C26G,0.773
18,C26A,0.788
19,C26T,0.836
20,T25C G34A,0.799
21,T25C G34T,0.786

row,Variant,fraction ligated
1,T25C G34C,0.795
2,T25G T44G,0.474
3,T25G T44C,0.741
4,T25G T44A,0.737
5,C26G T43G,0.479
6,C26G T43A,0.783
7,C26G T43C,0.689
8,T25G A41T,0.662
9,T25G A41G,0.492
10,T25G A41C,0.0915
11,T25G A39G,0.759
12,T25G A39T,0.393
13,T25G A39C,0.373
14,T25G T30C,0.372
15,T25G T30G,0.776
16,T25G T30A,0.674
17,C26G T32G,0.125
18,C26G T32A,0.238
19,C26G T32C,0.245
20,T25G G34A,0.77
21,T25G G34T,0.735

row,Variant,fraction ligated
1,T25G G34C,0.737
2,C26A G47T,0.235
3,C26A G47A,0.762
4,C26A G47C,0.0466
5,C26G T44G,0.776
6,C26G T44C,0.731
7,C26G T44A,0.781
8,T25C G38T,0.747
9,T25C G38C,0.0674
10,T25C G38A,0.803
11,C26A T30A,0.791
12,C26A T30G,0.802
13,C26A T30C,0.781
14,C26A C28G,0.395
15,C26A C28T,0.584
16,C26A C28A,0.64
17,C26A A36G,0.781
18,C26A A36T,0.823
19,C26A A36C,0.79
20,C26A T32G,0.499
21,C26A T32C,0.545

row,Variant,fraction ligated
1,C26A T32A,0.48
2,T25G C26A,0.261
3,T25G C26T,0.191
4,T25G C26G,0.0648
5,C26G T45G,0.0236
6,C26G T45A,0.0653
7,C26G T45C,0.00783
8,C26G T35C,0.772
9,C26G T35A,0.79
10,C26G T35G,0.784
11,C26G T29A,0.789
12,C26G T29C,0.749
13,C26G T29G,0.778
14,T25C T32G,0.707
15,T25C T32C,0.762
16,T25C T32A,0.745
17,C26G A27G,0.694
18,C26G A27T,0.411
19,C26G A27C,0.782
20,T25C C33A,0.77
21,T25C C33G,0.144
